Results: patent US20100041873A1

Biological target: Human IL-21 receptor on Baf3/KZ134/huIL-21R cells (human) (UniProt Q9HBE5)
Test: cell-based or functional assay

Chain of Human IL-21 receptor on Baf3/KZ134/huIL-21R cells (human) (Q9HBE5 20-538): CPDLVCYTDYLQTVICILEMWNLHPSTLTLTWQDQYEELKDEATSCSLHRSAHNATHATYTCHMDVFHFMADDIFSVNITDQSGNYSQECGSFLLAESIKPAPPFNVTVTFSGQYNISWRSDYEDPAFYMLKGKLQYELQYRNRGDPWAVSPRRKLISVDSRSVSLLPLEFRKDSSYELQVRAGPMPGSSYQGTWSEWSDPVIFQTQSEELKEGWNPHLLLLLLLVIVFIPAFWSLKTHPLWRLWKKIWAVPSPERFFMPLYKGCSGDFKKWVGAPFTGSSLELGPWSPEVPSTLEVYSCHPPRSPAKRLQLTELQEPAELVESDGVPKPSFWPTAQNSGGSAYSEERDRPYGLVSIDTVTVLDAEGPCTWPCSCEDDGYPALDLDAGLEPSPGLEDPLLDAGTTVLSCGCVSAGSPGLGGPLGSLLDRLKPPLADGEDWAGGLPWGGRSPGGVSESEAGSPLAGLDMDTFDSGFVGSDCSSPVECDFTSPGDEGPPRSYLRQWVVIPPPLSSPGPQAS

- EC90, 24 hr STAT-Luciferase assay in Baf3/KZ134/huIL-21R cells: 1.08 nM
Substance: Recombinant rat IL-21 (from UniProt A3QPB9 18-146) (ligand)
